# Results taken from patent publication US10144929B2, “Polypeptide inhibitors of Smad3 polypeptide activities” (Mayo Foundation for Medical Education and Research, priority 2016, dated 2018).
# What was measured:
# [1] = target: T1, pSmad3 (Mus musculus, UniProt Q8BUN5); assay: His pull down of pSmad3 by TAT-SNX9(SH3) fusion polypeptides; type: binding; settings: lysates of TGFβ treated AKR-2B cultures
# T1 construct: endogenous in cells; host or cells: AKR-2B cells
# Protocol: FIGS. 3A-E. Inhibition of Smad3 signaling by a defined region of the SH3 domain in SNX9. (A) Cartoon depicting constructs used for His pull down assays. AKR-2B lysates were incubated with the indicated TAT-SNX9(SH3) fusion polypeptide and immunoblotted for bound pSmad3 or total TAT-SNX9(SH3) fusion polypeptide (His). (B) Nuclear fractions were prepared and assessed as in FIG. 1B following transduction with the indicated TAT-SNX9(SH3) fusion polypeptide (Left). Quantitation (mean+/−sd) of nuclear pSmad2 or pSmad3 from 2 experiments (Right). (C) Immunofluorescence of nuclear Smad3 was determined as in FIG. 1C from 30 cells in each of two experiments in the absence (−) or presence (+) of 5 ng/mL TGFβ and the indicated TAT-SNX9(SH3) fusion polypeptide (1.5 μM). […]
# FIGS. 4A-E. A point mutant of TAT-SH3-2 abolishes the inhibitory action on Smad3 responses. […] (E) AKR-2B cells were transiently transfected with a BMP (BRE), EGF (SRE), or PDGF (MMP-1) reporter construct and luciferase activity determined following 12 hour incubation in the absence (−) or presence (+) of the indicated ligand (10 ng/mL BMP4, EGF, or PDGF), inhibitor (10 μM Dorsomophin; 3 μM Lapatinib; 2 μM CP868) or TAT-SNX9(SH3) fusion polypeptide (1.5 μM). […]
# [2] = Liver enzymes and inflammatory cells in blood of saline or BLM mice; type: in vivo, C57BL/6 mice; settings: 1 mg/kg daily from day 14; blood at days 0, 14, 28
# Protocol: (§1) FIG. 12. C57BL/6 mice received intratracheal instillation of saline or bleomycin (BLM). On day 14, all animals began daily treatment with either vehicle (methocel/saline) or 1 mg/kg of TAT-SH3-2. Blood samples were obtained at days 0, 14, and 28 from the facial vein of unanesthetized animals and assessed for effect on the indicated liver enzymes and inflammatory cells. Quantification of lymphocytes, monocytes, and neutrophils were measured using a VetScan HM5 Analyzer. Serum levels (U/L, units per liter; g/dL, grams per deciliter) of alkaline phosphatase (ALP), alanine aminotransferase (ALT), and albumin were determined using a Piccolo Xpress Chemistry analyzer. Data are presented as mean+/−SEM of n=5.
# as §1, with “C57BL/6” for “FIG. 12. C57BL/6”, “analyzer.” for “analyzer. Data are presented as mean+/−SEM of n=5.”
# T1 sequence (Q8BUN5 whole entry, the tested form may be a part): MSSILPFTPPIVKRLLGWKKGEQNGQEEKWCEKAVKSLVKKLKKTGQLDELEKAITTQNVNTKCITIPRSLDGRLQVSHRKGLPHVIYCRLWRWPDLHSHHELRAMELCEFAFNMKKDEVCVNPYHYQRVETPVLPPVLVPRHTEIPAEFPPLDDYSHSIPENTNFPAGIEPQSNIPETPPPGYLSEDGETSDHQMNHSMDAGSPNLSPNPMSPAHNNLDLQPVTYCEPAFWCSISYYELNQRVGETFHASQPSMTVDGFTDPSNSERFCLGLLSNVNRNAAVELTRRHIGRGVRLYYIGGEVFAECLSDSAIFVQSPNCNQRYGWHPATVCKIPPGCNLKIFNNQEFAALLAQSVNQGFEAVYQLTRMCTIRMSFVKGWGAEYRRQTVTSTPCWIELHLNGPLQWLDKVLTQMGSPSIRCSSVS
Substance,pSmad3 binding [1],"inflammatory cell recruitment (lymphocytes, monocytes, neutrophils) [2]","murine liver enzymes (ALP, ALT, albumin) [2]"
TAT-SH3-2: TAT-SNX9(SH3) fusion polypeptide having SNX9 amino acids 21-51 (31 mer) (TVNEGEIITITNPDVGGGWLEGRNIKGERGL; left off: small tags and cut ends),bound pSmad3 to a similar degree as a TAT-SNX9(SH3) fusion polypeptide having the full length SH3 domain,no demonstrable effect,no demonstrable effect
TAT-SH3-2M: TAT-SH3-2 with G to V point mutations at amino acids 36-38; inactive TAT-SNX9 peptide unable to bind pSmad3 (TVNEGEIITITNPDVVVVWLEGRNIKGERGL; left off: small tags and cut ends),unable to bind pSmad3,–,–
